Results published in the RNAGym collection of RNA variant scans (doi:10.7554/elife.80360).

B1: HDV Ribozyme (parent)
chain: GGCCGGCAUGGUCCCAGCCUCCUCGCUGGCGCCGGCUGGGCAACAUUCCGAGGGGACCGUCCCCUCGGUAAUGGCGAAUGGGACCCA

Variants of: B1
Assay: self-cleavage, relative activity (ratio to wild type); higher = more cleavage; co-transcriptional

In order of rising self-cleavage:
1. GGCCGGCAUGGUCCCAGCCACCCCGCUGGCGCCGGCUGGGCAACAUUCCGAGGGGACCGUCCCCUCGGUAAUGGCGAAUGGGACCCA  0
2. GGCCGGCAUGGGCCCAGCCUCCUCGCUGGCGCCGGCUGGGCAACAUUCCGAGGGGACCGUCCCCUCGGUAAUGGCGAUUGGGACCCA  0
3. GGCCGGCAUGGUCCCAGGCUCUUCGCUGGCGCCGGCUGGGCAACAUUCCGAGGGGACCGUCCCCUCGGUAAUGGCGAAUGGGACCCA  0.0504
4. GGCCGGCAUGGUCCCAGCCUCCUCGCUUGCACCGGCUGGGCAACAUUCCGAGGGGACCGUCCCCUCGGUAAUGGCGAAUGGGACCCA  0.0554
5. GGUCGGCAUGGUCCCAGCCUCCUCGCUGGCGCCGGCUGGGCAACAUUCCGAGGGGACCGUCCCCUCGGUAAUGCCGAAUGGGACCCA  0.0712
6. GGCCGGCAUGGUCCCAGCUUCCUCGCUGGCGCCGGCUGGGCAACAUUCCGAGGGGACCGUCCCCUCCGUAAUGGCGAAUGGGACCCA  0.0715
7. GGCCGGCAUGGUCCCAGCUUCCUCGCUGGCGCCGGCUGGGCAACAUUCCGAGGGGACCGUCCCCUCGGUAAUGUCGAAUGGGACCCA  0.0762
8. GGCUGGCAUGGUCCCAGCCUCCUCCCUGGCGCCGGCUGGGCAACAUUCCGAGGGGACCGUCCCCUCGGUAAUGGCGAAUGGGACCCA  0.0773
9. GGCAGGCAUGGUCCCAGCCUCCUCGCUGGCGCCGGCUGGGCGACAUUCCGAGGGGACCGUCCCCUCGGUAAUGGCGAAUGGGACCCA  0.0875
10. GGCCGGCAUGGUCCCAGCCUCCUCGCUGGCGCCGGCUGGCCAACAUUCCGAGGGGACCGUCCCCUCGGUAAUGACGAAUGGGACCCA  0.0978
11. GGCCGGCAUGGUCCCAGGCUCCUCGCUGGCGCCGGCUGGGCAACAUUCCGAGGGGACCGUCCCCUCGGCAAUGGCGAAUGGGACCCA  0.151
12. GGCCGGCAUGGUCCCAGCCUCCUCGCUGGCGCGGGCUGGGCAACAUUCCGAGGGGACCGUCCCCUCGGUAAUGGCGAAUGGGACGCA  0.151
13. GGCCGGCAUGGUCCCAGCCUCCUCGCUGGCGCCGGCUGGGCAACAUUCCGACGGGACCGUCCCCUCGGUAAUGGAGAAUGGGACCCA  0.153
14. GGCCGGGAUGGUCCCAGCCUCCUCGCUGGCGCCGACUGGGCAACAUUCCGAGGGGACCGUCCCCUCGGUAAUGGCGAAUGGGACCCA  0.156
15. GGCCGGCAUGGUCCCAGCCUCCUCGCUGUCGCCGGCUGGGCAACAUUCCGAGGGGACCGGCCCCUCGGUAAUGGCGAAUGGGACCCA  0.175
16. GGCCGGCAUGGUCCCAGCCUCCUCGCUGGCGCCGGGUGCGCAACAUUCCGAGGGGACCGUCCCCUCGGUAAUGGCGAAUGGGACCCA  0.232
17. GGCCGGCAUGGUCCCAGCCUCCUCGCUGGCGCCGGCUGGGCAACAUUCCGAGGGGACCGUCCCCUCGGUAAUGGCGAAUGGAACCGA  0.279
18. GGCCGGCAUGGUCCCAGACUCCUCGCUGGCGCCGGCUGGGCAACAUUCCGAGGGGACAGUCCCCUCGGUAAUGGCGAAUGGGACCCA  0.285
19. GGCCUGCAUGGUCCCAGCCUCCUCGCUGGCGCCGGCUGGGCAACAUUCCGAGGGGACCGUCCCCUCGGUAAUGGCGAAUGGGAACCA  0.302
20. GGCCGGCAUUGUCCCAGCCUCCUCGCUGGCGCCUGCUGGGCAACAUUCCGAGGGGACCGUCCCCUCGGUAAUGGCGAAUGGGACCCA  0.323
21. GGCCGGCAUGGUCCCAGCCUCCUCGCUGGCUCCGGCUGGGCAACAGUCCGAGGGGACCGUCCCCUCGGUAAUGGCGAAUGGGACCCA  0.38
22. GGCCGGCAUGGUCCCAGCCUCCUCGCUGGCGCCGGCUGGGCAACAUCCCGAGGGGACCGUCCCCUCGGUAAUGGCGAAGGGGACCCA  0.415
23. GGCCGGCAUGGUCCCAGCCUCCUCGCUGGUGCCGGCUGGGCAACAUUCCGAGGGGACCGGCCCCUCGGUAAUGGCGAAUGGGACCCA  0.443
24. GGCCGGCAUGGUCCCAGCCUCCUCGCUGGCGCCGGCUGGGCAACAUUCCGAGGGGACCGUCCUCUCGGUAAUGUCGAAUGGGACCCA  0.583
25. GGCCGGCAUGGUCCCAGCCUCCUCGCGGGCGCCGGCUGGGCAACGUUCCGAGGGGACCGUCCCCUCGGUAAUGGCGAAUGGGACCCA  0.712
26. GGCCGGCAUGGUCCCUGCCUCCACGCUGGCGCCGGCUGGGCAACAUUCCGAGGGGACCGUCCCCUCGGUAAUGGCGAAUGGGACCCA  0.739
27. GGGCGGCAUGGUCCCAGCCUCCUCGCUGGCGCCGGCUGGGCAACAUUCCGAGGGGACCGUACCCUCGGUAAUGGCGAAUGGGACCCA  0.87
28. GGCCGGCAUGGUCCCAGCCUCCUCGCUGGCGCCGGCUGGGCAGCAUUCCGAGGGGACCGUCCCCUCGGUGAUGGCGAAUGGGACCCA  0.914
29. GGCCGGCAUGGUCCCAGCCUCCUCGGUGGCGCCGGCUGGGCAACAUUCCGAGGGGACCGUCCCCUCGGUAAUGGCGAAUGGGACCCA  0.952
30. GGCCGGCAUGGUCCCAGCCUCCUCGCUGGCGCCGGCUGGGCAACAUUCCGAGGGGACGAUCCCCUCGGUAAUGGCGAAUGGGACCCA  1.1
31. GGCCGGCAUGGUCCCAGCCUCCUCGCUGGCGCCGGCUGGGCAACAUUCAGAGGGGACCGUCCCCUCGGCAAUGGCGAAUGGGACCCA  1.13
32. GGCCGGCAUGGUCCCGGCCUCCUCGCUGGCGCCGGCUGGGCAACAUUCCGAGGGGACCGUCCCCUCGGCAAUGGCGAAUGGGACCCA  1.15
